Measurements reported in patent US20110263454A1, “Methods of Identifying Functional Characteristics of Promoters, Transcription Modifying Proteins and Transcription Modulating Agents” (Salk Institute for Biological Studies, priority 2008, published 2011).

B1: CAR: Constitutive Androstane Receptor (NR1I3), cDNA driver (protein, UniProt Q14994 1-352, looked up)
Nuclear receptor subfamily 1 …: MASREDELRNCVVCGDQATGYHFNALTCEGCKGFFRRTVSKSIGPTCPFAGSCEVSKTQRRHCPACRLQKCLDAGMRKDMILSAEALALRRAKQAQRRAQQTPVQLSKEQEELIRTLLGAHTRHMGTMFEQFVQFRPPAHLFIHHQPLPTLAPVLPLVTHFADINTFMVLQVIKFTKDLPVFRSLPIEDQISLLKGAAVEICHIVLNTTFCLQTQNFLCGPLRYTIEDGARVSPTVGFQVEFLELLFHFHGTLRKLQLQEPEYVLLAAMALFSPDRPGVTQRDEIDQLQEEMALTLQSYIKGQQRRPRDRFLYAKLLGLLAELRSINEAYGYQIQHIQGLSAMMPLLQEICS
B2: RXRg: Retinoic X Receptor γ (NR2B3), cDNA driver (protein, UniProt P48443 1-463, looked up)
Retinoic acid receptor …: MYGNYSHFMKFPAGYGGSPGHTGSTSMSPSAALSTGKPMDSHPSYTDTPVSAPRTLSAVGTPLNALGSPYRVITSAMGPPSGALAAPPGINLVAPPSSQLNVVNSVSSSEDIKPLPGLPGIGNMNYPSTSPGSLVKHICAICGDRSSGKHYGVYSCEGCKGFFKRTIRKDLIYTCRDNKDCLIDKRQRNRCQYCRYQKCLVMGMKREAVQEERQRSRERAESEAECATSGHEDMPVERILEAELAVEPKTESYGDMNMENSTNDPVTNICHAADKQLFTLVEWAKRIPHFSDLTLEDQVILLRAGWNELLIASFSHRSVSVQDGILLATGLHVHRSSAHSAGVGSIFDRVLTELVSKMKDMQMDKSELGCLRAIVLFNPDAKGLSNPSEVETLREKVYATLEAYTKQKYPEQPGRFAKLLLRLPALRSIGLKCLEHLFFFKLIGDTPIDTFLMEMLETPLQIT
B3: RXRb: Retinoic X Receptor β (NR2B2), cDNA driver (protein, UniProt P28702 1-533, looked up)
Retinoic acid receptor …: MSWAARPPFLPQRHAAGQCGPVGVRKEMHCGVASRWRRRRPWLDPAAAAAAAVAGGEQQTPEPEPGEAGRDGMGDSGRDSRSPDSSSPNPLPQGVPPPSPPGPPLPPSTAPSLGGSGAPPPPPMPPPPLGSPFPVISSSMGSPGLPPPAPPGFSGPVSSPQINSTVSLPGGGSGPPEDVKPPVLGVRGLHCPPPPGGPGAGKRLCAICGDRSSGKHYGVYSCEGCKGFFKRTIRKDLTYSCRDNKDCTVDKRQRNRCQYCRYQKCLATGMKREAVQEERQRGKDKDGDGEGAGGAPEEMPVDRILEAELAVEQKSDQGVEGPGGTGGSGSSPNDPVTNICQAADKQLFTLVEWAKRIPHFSSLPLDDQVILLRAGWNELLIASFSHRSIDVRDGILLATGLHVHRNSAHSAGVGAIFDRVLTELVSKMRDMRMDKTELGCLRAIILFNPDAKGLSNPSEVEVLREKVYASLETYCKQKYPEQQGRFAKLLLRLPALRSIGLKCLEHLFFFKLIGDTPIDTFLMEMLEAPHQLA
B4: PXR: Pregnane X Receptor (NR1I2), cDNA driver (protein, UniProt O75469 1-434, looked up)
Nuclear receptor subfamily 1 …: MEVRPKESWNHADFVHCEDTESVPGKPSVNADEEVGGPQICRVCGDKATGYHFNVMTCEGCKGFFRRAMKRNARLRCPFRKGACEITRKTRRQCQACRLRKCLESGMKKEMIMSDEAVEERRALIKRKKSERTGTQPLGVQGLTEEQRMMIRELMDAQMKTFDTTFSHFKNFRLPGVLSSGCELPESLQAPSREEAAKWSQVRKDLCSLKVSLQLRGEDGSVWNYKPPADSGGKEIFSLLPHMADMSTYMFKGIISFAKVISYFRDLPIEDQISLLKGAAFELCQLRFNTVFNAETGTWECGRLSYCLEDTAGGFQQLLLEPMLKFHYMLKKLQLHEEEYVLMQAISLFSPDRPGVLQHRVVDQLQEQFAITLKSYIECNRPQPAHRFLFLKIMAMLTELRSINAQHTQRLLRIQDIHPFATPLMQELFGITGS
B5: RORb: RAR-related Orphan Receptor β (NR1F2), cDNA driver (protein, UniProt Q92753 1-470, looked up)
Nuclear receptor ROR-beta: MCENQLKTKADATAQIEVIPCKICGDKSSGIHYGVITCEGCKGFFRRSQQNNASYSCPRQRNCLIDRTNRNRCQHCRLQKCLALGMSRDAVKFGRMSKKQRDSLYAEVQKHQQRLQEQRQQQSGEAEALARVYSSSISNGLSNLNNETSGTYANGHVIDLPKSEGYYNVDSGQPSPDQSGLDMTGIKQIKQEPIYDLTSVPNLFTYSSFNNGQLAPGITMTEIDRIAQNIIKSHLETCQYTMEELHQLAWQTHTYEEIKAYQSKSREALWQQCAIQITHAIQYVVEFAKRITGFMELCQNDQILLLKSGCLEVVLVRMCRAFNPLNNTVLFEGKYGGMQMFKALGSDDLVNEAFDFAKNLCSLQLTEEEIALFSSAVLISPDRAWLIEPRKVQKLQEKIYFALQHVIQKNHLDDETLAKLIAKIPTITAVCNLHGEKLQVFKQSHPEIVNTLFPPLYKELFNPDCATGCK
B6: FXR: Farnesoid X Receptor (NR1H4), cDNA driver (protein, UniProt Q96RI1 1-486, looked up)
Bile acid receptor: MVMQFQGLENPIQISPHCSCTPSGFFMEMMSMKPAKGVLTEQVAGPLGQNLEVEPYSQYSNVQFPQVQPQISSSSYYSNLGFYPQQPEEWYSPGIYELRRMPAETLYQGETEVAEMPVTKKPRMGASAGRIKGDELCVVCGDRASGYHYNALTCEGCKGFFRRSITKNAVYKCKNGGNCVMDMYMRRKCQECRLRKCKEMGMLAECMYTGLLTEIQCKSKRLRKNVKQHADQTVNEDSEGRDLRQVTSTTKSCREKTELTPDQQTLLHFIMDSYNKQRMPQEITNKILKEEFSAEENFLILTEMATNHVQVLVEFTKKLPGFQTLDHEDQIALLKGSAVEAMFLRSAEIFNKKLPSGHSDLLEERIRNSGISDEYITPMFSFYKSIGELKMTQEEYALLTAIVILSPDRQYIKDREAVEKLQEPLLDVLQKLCKIHQPENPQHFACLLGRLTELRTFNHHHAEMLMSWRVNDHKFTPLLCEIWDVQ

Tests used:
[1] = system: mGhrelin promoter; experiment: NHR-promoter luciferase screen, mGhrelin promoter; format: cell-based, mouse; conditions: for Luc. act., normalized to lacZ / Normalized Luc. act., normalized to control: Table 8, mGhrelin; for Results of assays of transcription factor (+/- ligand) with mGhrelin: Table 6d, luciferase activity relative to control (control = 1.00)
Method in brief: (§1)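 CV-1 cells were co-transfected with 50 ng NHR (homodimer or NHR/RXR heterodimer), 100 ng promoter-luciferase construct and 50 ng LacZ. Luciferase was normalized to LacZ and to a no-NHR/no-ligand control.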

[2] = system: mAgrp promoter; experiment: NHR-promoter luciferase screen, mAgrp promoter; format: cell-based, mouse; conditions: for Results of assays of transcription factor (+/- ligand) with mAgrp: Table 6d, luciferase activity relative to control (control = 1.00); for Luc. act., normalized to lacZ / Normalized Luc. act., normalized to control: mAgrp promoter, HR component with or without ligand; for Normalized Luc. act., normalized to control: relative to control
Method in brief: as §1

[3] = system: mPgc1b promoter; experiment: NHR-promoter luciferase screen, mPgc1b promoter; format: cell-based, mouse; conditions: for Luc. act., normalized to lacZ / Normalized Luc. act., normalized to control: PGC1b promoter reporter, co-transfected HR, without or with its ligand; for Normalized Luc. act., normalized to control: relative to control; for luciferase activity normalized to lacZ activity and to a control, mPgc1b: mPgc1b promoter-luciferase, CV-1 cells, NHR +/- ligand, control = 1.00
Method in brief: (§2)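 Luciferase reporter read-out after co-expression in CV-1 cells of V5H6-tagged receptor (alone or with RXR), the promoter construct and LacZ. Values are luciferase/LacZ relative to a control lacking NHR or ligand; orphan receptors tested ligand-free.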

[4] = system: mABCA1 promoter; experiment: NHR-promoter luciferase screen, mABCA1 promoter; format: cell-based, mouse; conditions: for Luc. act., normalized to lacZ / Normalized Luc. act., normalized to control: ABCA1 promoter, hormone receptor with or without its ligand; for Normalized Luc. act., normalized to control: relative to control; for mABCA1 promoter reporter activity: transcription factor +/- ligand, control = 1.00
Method in brief: as §1

[5] = system: hCYP3A4 promoter; experiment: NHR-promoter luciferase screen, hCYP3A4 promoter; format: cell-based, human; conditions: for Luc. act., normalized to lacZ / Normalized Luc. act., normalized to control: CYP3A4 promoter, HR/ligand component; for hCYP3A4 promoter reporter activity: transcription factor +/- ligand, control = 1.00
Method in brief: as §2

Molecule	Luc. act., normalized to lacZ [1]	Normalized Luc. act., normalized to control [1]	Results of assays of transcription factor (+/- ligand) with mGhrelin [1]	Results of assays of transcription factor (+/- ligand) with mAgrp [2]	Luc. act., normalized to lacZ [2]	Normalized Luc. act., normalized to control [2]	Luc. act., normalized to lacZ [3]	Normalized Luc. act., normalized to control [3]	luciferase activity normalized to lacZ activity and to a control, mPgc1b [3]	Luc. act., normalized to lacZ [4]	Normalized Luc. act., normalized to control [4]	mABCA1 promoter reporter activity [4]	Luc. act., normalized to lacZ [5]	Normalized Luc. act., normalized to control [5]	hCYP3A4 promoter reporter activity [5]
B1	52.2	1.0	1.00	1.06	42.2	1.1	9.21	0.8	0.78	6.1	1.1	1.08	3.1	0.7	0.70
B2	59.0	1.1	1.13	1.30	51.5	1.3	9.0	0.8	0.76	18.3	3.3	3.26	0.9	0.2	0.19
B3	62.9	1.2	1.20	1.30	51.6	1.3	11.7	1.0	0.99	11.1	2.0	1.97	0.3	0.1	0.06
B4	136.2	2.6	2.61	1.51	60.0	1.5	10.19	0.9	0.86	15.2	2.7	2.72	8.8	2.0	1.98
B5	89.1	1.7	1.70	1.37	54.3	1.4	10.7	0.9	0.90	26.4	4.7	4.69	2.5	0.6	0.56
B6	65.7	1.3	1.26	1.14	45.1	1.1	7.82	0.7	0.66	14.0	2.5	2.50	4.2	0.9	0.93
